A short description of the series: yeast display, Sf9 membrane polyspecificity reagent, FACS + sequencing; frameworks hold sequencing errors. Summed up:
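A nanobody's polyreactivity label depends on the gate it was sorted from. Yeast display cells were stained with 10% biotinylated, detergent-solubilized Sf9 membrane reagent for 1 hour at 4 °C, enriched on streptavidin microbeads and sorted by FACS. The low and high (top ~1%) gates were set on anti-HA fluorescence for expression and streptavidin fluorescence for reagent binding.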
“QVQLVESGGGLVQAGGSLRLSCAASGRTLENYAMGWSRQAPGKERELVATINGRSGNTYYADSVKGRFTLSRDNAKNTVYLQMNSLKPEDTAVYYCNAYYEGYYTVGYDYWGQGTQVTVSS”: the “polyreactivity (PSR sort gate)” value is listed as “high polyreactivity”. Take “QVQLVESGGGLVQAGGSLRLSCAASGRTLGFYAMGWYRQAPGKEREFVAAISSSVGRTYYADSVKGRFTISRDNAKNTVYLQMNSLKPEDTAVYYCAADRTDTSNYWGQGTQVTVSS”: the “polyreactivity (PSR sort gate)” value is “high polyreactivity”. With “QVQLVESGGGLVQAGGSLRLSCAASGRTLGHNAMGWYRPAPGKERELVAAITSRGGTTYADSVKGRFTISRDNAKKTVYLQMNSLKPEETAVYYCAARVSGSRKYYYWGQGTQVTVSS”, the “polyreactivity (PSR sort gate)” value is “high polyreactivity”. As for “QVQLVESGGGLVQAGGSLRLSCAASGRTLGHNAMGWYRQAPGKERELVAAITSRGGTTYADSVKGRFTISRDNAKNTVYLQMNSLKPEDTAVYYCAARGYAYSRYYYWGQGTQVTVSS”, the “polyreactivity (PSR sort gate)” value is “high polyreactivity”. With “QVQLVESGGGLVQAGGSLRLSCAASGRTLGKYVMGWYRQAPGKERELVAAISVRGGTTYYADSVKGRFTISRDNAKYTVYLQMNSLKPEDTAVYYGNKAYYVWYGWGQGTQVTVSS”, the “polyreactivity (PSR sort gate)” value is recorded as “high polyreactivity”. To “QVQLVESGGGLVQAGGSLRLSCAASGRTLGSNTMGWYRQAPGKERELVASISLSGGSTSYADSVKGRFTISRDNAKNTVYLQMNSLKPEDTAVYYCNAKYHRRLQWGTRYYYWGQGTQVTVSS” belongs “high polyreactivity”; to “QVQLVESGGGLVQAGGSLRLSCAASGRTLGTNAMGWYRQAPGKERELVASISKRGGSTYYADSVKGRFTISRDNAKNTVYLQMNSLKPEDTAVYYCAALFLSHIYYYWGQGTQVTVSS”, “high polyreactivity”. Take “QVQLVESGGGLVQAGGSLRLSCAASGRTLGVYTMGWYRQAPGKERELVATISWDGGITYYADSVKGRFTISRDNAKNTVYLQMNSLKPEDTAVYYCAAVDHSYGWMDYWGQGTQVTVSS”: the “polyreactivity (PSR sort gate)” value is given as “low polyreactivity”.

For the sequence “QVQLVESGGGLVQAGGSLRLSCAASGRTLHDYTMGWYRQEPGKERELVAGITSGGRTNYADSVKGRFTISRYNAKNTVYLQMNSLKPEDTAVYYCAAAWTWWRLYADDYWGQGTQVTVSS”, the “polyreactivity (PSR sort gate)” value is on record as “high polyreactivity”. To “QVQLVESGGGLVQAGGSLRLSCAASGRTLISYAMGWYRQAPGKERELVAAISWGGSSTYYADSVKGRFTISGDNAKNTVYLQMNSLKPEDTAVYYCAAVSYRGRGLSRYVAYGYKYDYWGQGTQVTVSS” belongs “high polyreactivity”; to “QVQLVESGGGLVQAGGSLRLSCAASGRTLKKNSMGWYRQAPGKERELVAAISTGGRTYYADSVKGRFTISRDNAKNTVYLQINSLKPEDTAVYYCNFQFLSWSTIWGNDYWGQGTQVNVSS”, “high polyreactivity”. To “QVQLVESGGGLVQAGGSLRLSCAASGRTLKYNAMGWYRQAPGKERELVAAISWSGTRTYYADSVKGRFTISRDNAKNTVYLQMNSLKPEDTAVYYCALYGGLGDRFRPRYYWGQGTQVTVSS” belongs “high polyreactivity”; to “QVQLVESGGGLVQAGGSLRLSCAASGRTLLANAMGWYRQAPGKARELVAAITWTGGRTNYADSVKGRFTISRDNAKNTVYLQMNSLKPEDTAVYYCAADIFYEQVVGGTDVGYHDFDYWGQGTQVTVSS”, “low polyreactivity”. For “QVQLVESGGGLVQAGGSLRLSCAASGRTLNVYAMGWYRQAPGKDREFVAAITVSGGNTYADSVKGRFTISRDNAKNTVYLQMNSLKPEDTAVYYCAVDRFSYSRRYDYWGQGTQVTVSS” the value was “high polyreactivity”; for “QVQLVESGGGLVQAGGSLRLSCAASGRTLNYYAMVCYRQAPGKERELVASIDWDTGITDYADSVKGRFTISRDNAKNTVYLQMNSLKPEDSAVYYCAAVRVTKKYSYAYWGQGTQVTVSS”, “low polyreactivity”. On to “QVQLVESGGGLVQAGGSLRLSCAASGRTLPATGMGWYRQAPGKERELVAAINWRGGITYYADSVKGRFTISRDNAKNTVYLQMNSLKPVDTAVYYCARLRYFLLNGSLRYGTSDRDYWGQGTQVTVSS”, for which the “polyreactivity (PSR sort gate)” value is “high polyreactivity”. Consider “QVQLVESGGGLVQAGGSLRLSCAASGRTLPYYAMGWYRQAPGKERELVATISSRGGSTYYADSVKGRFTISRDNAKNTVYLQMNSLKPEDTAVYYCAARGNTPRTRRYGYWGQGTQVTVSS”, for which the “polyreactivity (PSR sort gate)” value is “high polyreactivity”. Consider “QVQLVESGGGLVQAGGSLRLSCAASGRTLQYNAMGWYRQAPGKEMELVAAISSSGGSTYYADSVKGRFTISRDNAKNTVYLQMNSLKPEDTALYYCNAYSQSWNFYGDGDYWGQGTLVTVSS”, for which the “polyreactivity (PSR sort gate)” value is “low polyreactivity”. “QVQLVESGGGLVQAGGSLRLSCAASGRTLRLYVMGWYRQAPGKERELVAAISRSGGRTYYADSVKGRFTISRDNATNTVYLQMNSLKPEDTAVYYCAADSGRYGYDYWGQGTLVTVSS”: the “polyreactivity (PSR sort gate)” value is given as “high polyreactivity”.

As for “QVQLVESGGGLVQAGGSLRLSCAASGRTLSRNAMGWSRQAPGKEREFVAAISSRGTSTYYADSVKGRFTISRDNAKNTVYLQMNSLKPEDTAVYYCATTLGGNYGYDYWGQGTQVTVSS”, the “polyreactivity (PSR sort gate)” value was “high polyreactivity”. For “QVQLVESGGGLVQAGGSLRLSCAASGRTLTFYAMGWYRQAPGTERELVAAITWRAGSTYYADSVKGRFTISRDNAKNTVYLQMNSMKPEDTAVYYCAREPYSASHVYGLYRGYDYWGQGTQVTVSS” the value was “low polyreactivity”. For “QVQLVESGGGLVQAGGSLRLSCAASGRTLTGNAMGWYRQAPGKERELVAAITARGGSTYYADSVKGRFTISRDIAKNTVYLQMNSLKPEDSAVYYCATLPVRIRRDYWGQGTQVTVSS” the value was “high polyreactivity”. For “QVQLVESGGGLVQAGGSLRLSCAASGRTLTSYAMGWYRQAPGKERELVARISNGGNTKYADSVNGRFTISRDNAKNTVYLQMNSLKPEDTAVYYCAADYSYYHGPSRHKHDYWGQGTKVTVSS” the value was “low polyreactivity”. As to “QVQLVESGGGLVQAGGSLRLSCAASGRTLVGYAMGWYIQAPGKERELVAAISSRGGGTYYADSVKGRFTISRDNAKNTVYLQMNSLKQEDTAVYYCEVSGASYSWGQGTQVTVSS”, the “polyreactivity (PSR sort gate)” value is “high polyreactivity”. To “QVQLVESGGGLVQAGGSLRLSCAASGRTLVLYAMGWYRQAPGKERELVAAITWSGDSTYYADSVKGRFTISRDNAKNTVYLQMNSLKPEDTAVYYCAATYLNAKRGLRYDYWGQDTQVTVSS” belongs “low polyreactivity”; to “QVQLVESGGGLVQAGGSLRLSCAASGRTLYGYPMGWYRQAPGKERELVAAISKRGTRTYYADSVKGRFTISRDNAKNTVYIQMNSLKPEDTAVYYCAARYPPDEATMVYWGQGTQVTVSS”, “high polyreactivity”; to “QVQLVESGGGLVQAGGSLRLSCAASGRTLYKYAMGLYRQAPGKERELFATISSGGRTNYADSVKGRFTISRDNSKNTVYLQMNSLKPEDTAVYYCAAQNRPRYYSGDYWGQGSQVTVSS”, “low polyreactivity”.

On to “QVQLVESGGGLVQAGGSLRLSCAASGRTLYRYTMGWYRQAPGKERELVAAISRGGSTYYADSVKGRFTISRDNAKNTVYLQMNSLKPEDTAVYYCAAVYSYTSWQTWWPEYDYWGQGTQVTVSS”, for which the “polyreactivity (PSR sort gate)” value is reported as “high polyreactivity”. For “QVQLVESGGGLVQAGGSLRLSCAASGRTSDGYAMGWYRQAPGKERELVAGITEGGGDTYYADSVKGRFTISRDNAKNTVYLQMNSLKPEDSAVYYCNAVEGSRLPYDYWGQGTQVTVSS” the value was “low polyreactivity”; for “QVQLVESGGGLVQAGGSLRLSCAASGRTSGINAMGWYRQSPGKERELVAAISSGGRTYYADSVKGRFTISRDNAKNTVYLQMNSLKPEDTAVYYCAAVIHWSLYRRMEYWGQGTQVTVSS”, “high polyreactivity”; for “QVQLVESGGGLVQAGGSLRLSCAASGRTSGNYAMGWYRPAPGKERELVAAMRYSGSSTFYADSVKGRFTISRDNAKNTVYLQMNSLKPEDTAVYYCARDIRRKGFRYDYWGQGTQVTVSS”, “high polyreactivity”.

With “QVQLVESGGGLVQAGGSLRLSCAASGRTSIYNAMGWYRQAPGKDREFVAAITSSGGSTYYADSVKGRFTISRDNAKNTVYLQMNSLKPEDTAVYYCAARPAYVYAYYRYGYWGQGTQVTVSS”, the “polyreactivity (PSR sort gate)” value is on record as “high polyreactivity”. In the case of “QVQLVESGGGLVQAGGSLRLSCAASGRTSKVYAMGWYRQAPGKERELVARITSSGVRTYYADSVKGRFTISRDNAKNTVYLQMNSLKPEDTAVYYCAKDARALWLHSGIYDYWGQGTQVTVSS”, the “polyreactivity (PSR sort gate)” value is recorded as “low polyreactivity”. In the case of “QVQLVESGGGLVQAGGSLRLSCAASGRTSRIYAMGLYRQAPGKERELVASISRRGGITYYADSVKGRFTISRDNAKTTVDFQMTSLKPEDTAVYYSASYYTNKVPARYYWGQGTEVTVSS”, the “polyreactivity (PSR sort gate)” value is on record as “high polyreactivity”. To “QVQLVESGGGLVQAGGSLRLSCAASGRTSRYYAMGWYRQAPGKERELVATITRGGTTNYADSVKGRFTISRDNAKNNVYLQMNSLKPEDTAVYYCNKVFRAPGVSDYGYWGQGTQVTVSS” belongs “high polyreactivity”. To “QVQLVESGGGLVQAGGSLRLSCAASGRTSTIYTMGWYRQAPGKEREFVASISAGAGTYYADSVKGRFTISRDNAKNTVYLQMNSLKPEDTAVYYCSASVYWRSTRRHQMDYWGQGTQVTVSS” belongs “high polyreactivity”.

Consider “QVQLVESGGGLVQAGGSLRLSCAASGRTSVRYAMGWYRQAPGKERELVAAISWSGGSTYYADSVKGRFTISRDNAKNTVYLQMNSLKPEDTAVYYCNAQHARGYYYWGQGTQVTVSS”, for which the “polyreactivity (PSR sort gate)” value was “low polyreactivity”. In the case of “QVQLVESGGGLVQAGGSLRLSCAASGRTSVVNAMGWYRQAPGKERELVAAITSGGSTHYADSVKGRFTISRDNAKNTVYLQMNSLKPEDTAVYYCNARDRRRTNLLDYWGQGTQVTVSS”, the “polyreactivity (PSR sort gate)” value is reported as “low polyreactivity”. Regarding “QVQLVESGGGLVQAGGSLRLSCAASGRTSWYYAMGWYRQAPGNERELVATITRSTGSTYYADSVKGRFTISRDNAKNTVYLQMNCLKPEDTAVYDCARLYYFNGDYWGQGTQVTVSS”, the “polyreactivity (PSR sort gate)” value is reported as “high polyreactivity”. To “QVQLVESGGGLVQAGGSLRLSCAASGRTSYGYAMGWYRQAPGKERDLFAAITYGGGSTYYADTVKGRFTISRDNANNTVYLQMNSLIPEDTALYYCAADRTGSTLYTISYYYWGQGTQVTVSS” belongs “low polyreactivity”. Turning to “QVQLVESGGGLVQAGGSLRLSCAASGRTVDWYAMGWYRQAPGTDRELVAVISSSGGRTYYADSVKGRFTISRDNAKNTVYLQMNRLKPEDTAVYYCATQNGSKRYSYYYWGQGTQVTVSS”, the “polyreactivity (PSR sort gate)” value is “high polyreactivity”.

For the origin of these results see the nanobody polyreactivity screen of Harvey et al. (2022).
